From paper PMC4812251

Substrate: CC(=O)O
Experiment: purified protein
Conditions: ATP 10 mM, CoA 0.1 mM, MgCl2 5 mM, acetate salt 2.5-80 mM

B1: DtACS (Dunaliella tertiolecta) (protein)
chain: MKCSALPAGSRPQALATHTSMQAPLLLRSLAPSVPKLAQPAGTPLVHSSLPCYRKSRSCSHLASASSTAPGSTTMKPQPLLTNFIQSKEEYDALYARSIADPASFWGDVAEQFHWEKKWDPDHHSFNFDVTKGPINVEWFKGGFTNICYNALDRHVMTGHGNQHCMLFEGNEPGSDGAMTYTQVLDEVCRLANWMKAQGIGKGDCVAIYMPMVMQLPIAMLACARIGAVHSVVFGGFSADALAGRMEDCKARVLLTCNGGMRATKKIELKQIADQAIEMCASRGHTVDSVLVFANHKDGVAGAEAAGTPFTQGRDAWWQPTLAEFPALCDVAWVPAEHPLFLLYTSGSTGKPKGVLHTTGGYMVYAATTTKHAFQLQPGDVFWCTADCGWITGHSYLAYGPLLNRAVSVVFEGVPTHPTPARSWEIIDKYQVKQFYTAPTALRSLMRSGDEWLSSTSRQSLQVLGTVGEPINPEAWHWFHDLVGNGRCPVVDTWWQTETGGHMILPLPRAWPAKPGSATLPFFGVEPVILDDKGVELQGECEGLLMMRRPWPSTLRSVYGDHKRYEENYFGPYPGYYFTGDGARRDKDGYYWITGRVDDVINVSGHRIGTAEVESAIAAHHDCAEAAVAGYEHPVKGQGIYAFVVLKEGVVPNDQLKKEMWTNVRTTIGAFAAPDVIHWAPGLPKTRSGKIMRRVLRKIAGGQENELGDTSTLADPSIVRQLIETRN
B1 showed a Km (Tris-Cl pH 8.0, 37 °C (general assay)) of 3.59 mM and a Km (Tris-Cl pH 8.0, 37 °C (general assay; mix lists 10 mM potassium acetate as substrate)) of 4.66 mM.
